Assay results reported in patent publication US20250171556A1 (VIRTUOSO BINCO, published 2025).
Like-named read-outs stand apart in the source and are kept apart here.

Key:
recombinant human CD47 [1] = molecular target: T1, recombinant human CD47 (human, UniProt Q08722 19-139, limits assumed); test: ELISA, plate coated with recombinant human CD47, detection with peroxidase anti-human IgG (Fab specific), OD450
T1 construct: Recombinant protein for ELISA coating; also called human CD47 recombinant protein
Protocol: (§1) A 96-well plate was coated overnight at 4° C. with 1 μg/ml recombinant human CD47 or human EpCAM. After washing 3 times, the plate was blocked with 300 μl 1% BSA in PBST at 37° C. for 1 hour. Serially diluted antibodies were added and incubated at 37° C. for 1 hour. The plate was then washed 4 times with PBST and incubated with 1:5000 diluted peroxidase labeled goat anti-human IgG (Fab specific) secondary antibody (Sigma, Cat #A0293) for 1 hour at 37° C. The plate was washed again 4 times with PBST, incubated with 3,3′,5,5′-tetramethylbenzidine (TMB) substrate for 15 min at room temperature, terminated with 1N HCl, and then read at 450 nm.
(§2) ELISA assay was performed as described in EXAMPLE 3.

recombinant human EpCAM [2] = molecular target: T2, recombinant human EpCAM (human, UniProt P16422 24-265); test: ELISA, plate coated with recombinant human EpCAM, detection with peroxidase anti-human IgG (Fab specific), OD450
T2 construct: Recombinant protein for ELISA coating; also called human EpCAM recombinant protein
T2 sequence (looked up): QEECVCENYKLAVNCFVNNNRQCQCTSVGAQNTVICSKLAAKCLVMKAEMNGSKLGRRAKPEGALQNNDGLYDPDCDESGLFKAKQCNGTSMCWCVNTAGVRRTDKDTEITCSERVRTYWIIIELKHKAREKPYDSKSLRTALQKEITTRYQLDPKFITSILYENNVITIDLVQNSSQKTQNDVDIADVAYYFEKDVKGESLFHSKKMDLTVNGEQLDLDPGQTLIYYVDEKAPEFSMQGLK
Protocol: as §1, §2

recombinant human CD47 [3] = molecular target: T1, recombinant human CD47; test: ELISA, plate coated with recombinant human CD47, detection with peroxidase anti-human IgG (Fab specific), OD450; remark: listed apart in the source
Protocol: as §1, with “μg/mL” for “μg/ml”, “EGFR.” for “EpCAM.”, “μL” for “μl”

CD47 on human cells [4] = molecular target: T3, CD47 on human cells (human, UniProt Q08722 19-323); test: flow cytometry, blocking of SIRPα-mIgG2a fusion protein (0.2 µg/mL) binding to CD47 on Raji cells (EpCAM-/CD47+), inhibition (%)
T3 construct: whole, on cells; Endogenous CD47 on cells; also called CD47 on Raji cells; CD47 on HCT-15 cells
Protocol: (§3) Tumor cells were harvested, centrifuged, and then resuspended in FACS buffer (PBS plus 2% FBS) at a concentration of 2×10⁶ cells/mL. 100 μL of the cell suspension was dispensed into each well of a 96-well plate. The plate was centrifuged for 5 min and 300×g, and the supernatants were discarded. […] Then, the plates were washed twice with FACS buffer and incubated for 1 hour at 4° C. in the dark with 100 μL of Alexa Fluor 488 donkey anti-Mouse IgG (H+L) secondary antibody (Invitrogen, Cat #A21202, 1:1000). After washing twice with FACS buffer, the plates were resuspended with 300 μL FACS buffer and analyzed by flow cytometry.

CD47 on human cells [5] = molecular target: T3, CD47 on human cells; test: flow cytometry competition with SIRPα-mIgG2a; IC50 on HCT-15 cells against IC50 on Raji cells
Protocol: as §3

CD47 on human cells [6] = molecular target: T3, CD47 on human cells; test: flow cytometry on a mixture of HCT-15 cells and RBCs; EC50 on HCT-15 cells against EC50 on RBCs
Protocol: (§4) Binding of antibodies on mixed tumor cells and RBCs was performed by FACS. In brief, antibodies were incubated with a mixture of HCT-15 tumor cells and RBCs (in 20-fold excess of tumor) for 1 h at 4° C. The binding of antibodies on HCT-15 cells and RBCs were identified by using different FACS markers and detected by flow cytometry.

recombinant human CD47 [7] = molecular target: T1, recombinant human CD47; test: ELISA, plate coated with recombinant human CD47, detection with peroxidase anti-human IgG (Fab specific), OD450; remark: listed apart in the source
Protocol: as §1

recombinant human EpCAM [8] = molecular target: T2, recombinant human EpCAM; test: ELISA, plate coated with recombinant human EpCAM, detection with peroxidase anti-human IgG (Fab specific), OD450; remark: listed apart in the source
Protocol: as §1

CD47 on human cells [9] = molecular target: T3, CD47 on human cells; test: flow cytometry competition with SIRPα-mIgG2a (1 µg/mL) on EpCAM-high HCT-15 cells; EpCAM high HCT-15 cells; SIRPα-mIgG2a 1 µg/mL
Protocol: as §3

CD47 on human cells [10] = molecular target: T3, CD47 on human cells; test: flow cytometry competition with SIRPα-mIgG2a (0.2 µg/mL) on EpCAM-negative Raji cells; EpCAM negative Raji cells; SIRPα-mIgG2a 0.2 µg/mL
Protocol: as §3

CD47 on human cells [11] = molecular target: T3, CD47 on human cells; test: flow cytometry, blocking of SIRPα-mIgG2a fusion protein (1 µg/mL) binding to CD47 on HCT-15 cells (EpCAM+++/CD47+), inhibition (%)
Protocol: as §3

CD47 on human cells [12] = molecular target: T3, CD47 on human cells; test: flow cytometry on a mixture of HCT-15 tumor cells and a 20-fold excess of RBCs, signal on the HCT-15 cells (EpCAM+/CD47+, so both arms of the bispecific can take part), % of selective binding
Protocol: as §4

B1: CD47×EpCAM_v9 (bispecific antibody, human IgG1, kappa)
heavy: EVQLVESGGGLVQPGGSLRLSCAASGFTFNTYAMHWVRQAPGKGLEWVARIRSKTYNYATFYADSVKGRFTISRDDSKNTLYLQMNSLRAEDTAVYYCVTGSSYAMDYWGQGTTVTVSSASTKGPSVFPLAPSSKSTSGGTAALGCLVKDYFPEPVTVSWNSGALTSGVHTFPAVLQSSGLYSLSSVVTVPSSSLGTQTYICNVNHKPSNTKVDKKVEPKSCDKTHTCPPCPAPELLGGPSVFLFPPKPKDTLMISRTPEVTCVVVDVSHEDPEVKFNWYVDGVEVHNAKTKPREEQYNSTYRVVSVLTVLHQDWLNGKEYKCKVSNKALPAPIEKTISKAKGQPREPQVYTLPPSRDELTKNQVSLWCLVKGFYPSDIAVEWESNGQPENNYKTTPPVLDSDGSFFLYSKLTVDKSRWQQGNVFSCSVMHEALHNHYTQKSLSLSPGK
light: DIQLTQSPSSLSASVGDRVTFTCRASQSIGTSLHWYQQKPGKAPKLLIKYASESISGIPSRFSGSGSGTDFTLTISSVQPEDFATYYCQQSNSWPYTFGQGTKLEIKRTVAAPSVFIFPPSDEQLKSGTASVVCLLNNFYPREAKVQWKVDNALQSGNSQESVTEQDSKDSTYSLSSTLTLSKADYEKHKVYACEVTHQGLSSPVTKSFNRGEC
scFv: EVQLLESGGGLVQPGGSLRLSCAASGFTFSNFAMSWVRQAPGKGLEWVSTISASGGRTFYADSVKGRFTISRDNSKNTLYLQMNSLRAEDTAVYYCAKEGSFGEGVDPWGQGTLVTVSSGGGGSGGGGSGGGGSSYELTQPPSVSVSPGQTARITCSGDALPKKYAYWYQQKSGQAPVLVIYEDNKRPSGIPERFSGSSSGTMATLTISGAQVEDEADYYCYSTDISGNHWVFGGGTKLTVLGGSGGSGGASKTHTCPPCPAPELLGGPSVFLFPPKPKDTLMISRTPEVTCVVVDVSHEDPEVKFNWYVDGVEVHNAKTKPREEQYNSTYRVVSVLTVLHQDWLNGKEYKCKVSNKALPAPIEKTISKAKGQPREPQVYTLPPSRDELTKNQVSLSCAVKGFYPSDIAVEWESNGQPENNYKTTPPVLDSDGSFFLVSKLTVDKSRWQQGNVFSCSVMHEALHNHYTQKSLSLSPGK
notes: Three-chain knob-into-hole bispecific: anti-EpCAM Fab arm and anti-CD47 scFv arm
EC50 (read off the curve) (recombinant human CD47 [1]): ~7000 pM
EC50 (read off the curve) (recombinant human EpCAM [2]): ~100 pM

B2: VIR47.V8 (antibody, human IgG1, lambda, V domains shown)
VH: EVQLLESGGGLVQPGGSLRLSCAASGFTFSNFAMSWVRQAPGKGLEWVSTISASGGRTFYADSVKGRFTISRDNSKNTLYLQMNSLRAEDTAVYYCAKEGSFGEGVDPWGQGTLVTVSS
VL: SYELTQPPSVSVSPGQTARITCSGDALPKKYAYWYQQKSGQAPVLVIYEDNKRPSGIPERFSGSSSGTMATLTISGAQVEDEADYYCYSTDISGNHWVFGGGTKLTVLG
notes: Bivalent monospecific parental anti-CD47 antibody; also called parental CD47 antibody VIR47.V8; anti-CD47 bivalent antibody (VIR47.V8)
EC50 (read off the curve) (recombinant human CD47 [3]): ~50 pM
IC50 (read off the curve) (CD47 on human cells [4]): ~8000 pM

B3: CD47×EpCAM_v5 (bispecific antibody, human IgG1, lambda)
heavy: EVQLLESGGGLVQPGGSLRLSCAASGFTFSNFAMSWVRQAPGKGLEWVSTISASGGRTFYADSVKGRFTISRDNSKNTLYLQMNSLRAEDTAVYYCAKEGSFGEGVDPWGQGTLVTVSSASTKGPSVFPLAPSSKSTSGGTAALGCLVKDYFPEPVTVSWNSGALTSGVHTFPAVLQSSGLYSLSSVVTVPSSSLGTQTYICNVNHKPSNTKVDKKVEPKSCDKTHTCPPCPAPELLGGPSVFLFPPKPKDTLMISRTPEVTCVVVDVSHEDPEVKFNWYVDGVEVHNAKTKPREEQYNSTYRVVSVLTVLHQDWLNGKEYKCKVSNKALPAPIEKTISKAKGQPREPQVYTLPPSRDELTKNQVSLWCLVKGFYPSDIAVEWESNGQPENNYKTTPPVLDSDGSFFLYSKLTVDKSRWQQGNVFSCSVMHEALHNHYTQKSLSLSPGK
light: SYELTQPPSVSVSPGQTARITCSGDALPKKYAYWYQQKSGQAPVLVIYEDNKRPSGIPERFSGSSSGTMATLTISGAQVEDEADYYCYSTDISGNHWVFGGGTKLTVLGQPKAAPSVTLFPPSSEELQANKATLVCLISDFYPGAVTVAWKADSSPVKAGVETTTPSKQSNNKYAASSYLSLTPEQWKSHRSYSCQVTHEGSTVEKTVAPTECS
scFv: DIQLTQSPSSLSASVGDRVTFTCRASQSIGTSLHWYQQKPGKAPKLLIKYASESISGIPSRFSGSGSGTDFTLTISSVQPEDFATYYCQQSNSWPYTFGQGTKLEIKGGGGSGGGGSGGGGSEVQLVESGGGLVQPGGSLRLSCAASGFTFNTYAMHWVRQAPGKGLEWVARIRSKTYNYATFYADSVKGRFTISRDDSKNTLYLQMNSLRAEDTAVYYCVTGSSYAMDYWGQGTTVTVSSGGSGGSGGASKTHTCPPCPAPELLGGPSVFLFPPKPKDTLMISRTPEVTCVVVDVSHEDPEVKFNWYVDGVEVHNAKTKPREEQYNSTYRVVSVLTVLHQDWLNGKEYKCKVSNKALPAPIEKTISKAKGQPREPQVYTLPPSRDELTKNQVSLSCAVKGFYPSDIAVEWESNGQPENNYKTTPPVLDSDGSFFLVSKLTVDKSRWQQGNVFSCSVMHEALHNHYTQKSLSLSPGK
notes: Three-chain knob-into-hole bispecific: anti-CD47 Fab arm (VIR47.V8) and anti-EpCAM scFv arm (Mab002-11), human IgG1 backbone; also called anti-CD47×EpCAM bispecific antibody
fold difference of IC50 (HCT-15 cells against Raji cells) (CD47 on human cells [5]): ~500 fold
fold difference of binding EC50 (tumor cells against RBCs) (CD47 on human cells [6]): > 200 fold
EC50 (read off the curve) (recombinant human CD47 [7]): ~1000 pM
EC50 (read off the curve) (recombinant human EpCAM [8]): ~800 pM
IC50 (CD47 on human cells [9]): < 1000 pM
IC50 (CD47 on human cells [10]): > 100000 pM
IC50 (read off the curve) (CD47 on human cells [11]): ~300 pM
EC50 (read off the curve) (CD47 on human cells [12]): ~90 pM

B4: CD47×EpCAM_v10 (bispecific antibody, human IgG1, lambda)
heavy: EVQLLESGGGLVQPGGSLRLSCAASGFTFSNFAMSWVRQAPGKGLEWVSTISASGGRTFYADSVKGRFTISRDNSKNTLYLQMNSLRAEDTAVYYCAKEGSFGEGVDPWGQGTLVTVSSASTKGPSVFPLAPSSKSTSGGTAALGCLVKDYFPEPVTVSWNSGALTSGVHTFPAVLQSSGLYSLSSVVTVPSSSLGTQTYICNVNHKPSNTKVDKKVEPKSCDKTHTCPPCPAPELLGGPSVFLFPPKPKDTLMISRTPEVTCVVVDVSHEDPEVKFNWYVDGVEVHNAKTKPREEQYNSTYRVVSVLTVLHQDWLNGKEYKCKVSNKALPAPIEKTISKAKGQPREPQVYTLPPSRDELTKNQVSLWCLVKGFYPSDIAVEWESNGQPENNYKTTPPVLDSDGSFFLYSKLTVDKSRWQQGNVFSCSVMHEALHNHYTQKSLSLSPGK
light: B3 light
scFv: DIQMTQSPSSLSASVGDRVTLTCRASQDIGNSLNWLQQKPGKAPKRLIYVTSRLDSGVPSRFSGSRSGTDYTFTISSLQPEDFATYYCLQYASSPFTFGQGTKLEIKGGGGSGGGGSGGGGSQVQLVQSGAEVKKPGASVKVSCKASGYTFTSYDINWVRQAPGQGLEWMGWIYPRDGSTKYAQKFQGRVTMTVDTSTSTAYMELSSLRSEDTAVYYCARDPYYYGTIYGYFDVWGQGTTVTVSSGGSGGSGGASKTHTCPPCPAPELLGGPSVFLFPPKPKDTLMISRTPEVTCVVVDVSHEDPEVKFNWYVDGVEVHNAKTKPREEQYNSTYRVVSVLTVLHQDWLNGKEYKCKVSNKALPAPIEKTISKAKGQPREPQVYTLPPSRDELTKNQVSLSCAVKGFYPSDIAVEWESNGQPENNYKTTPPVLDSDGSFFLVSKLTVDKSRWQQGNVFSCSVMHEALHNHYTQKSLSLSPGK
notes: Three-chain knob-into-hole bispecific: anti-CD47 Fab arm and anti-EpCAM scFv arm (Mab001-12)
EC50 (read off the curve) (recombinant human CD47 [1]): ~1000 pM
EC50 (read off the curve) (recombinant human EpCAM [2]): ~9000 pM

B5: CD47×EpCAM_v11 (bispecific antibody, human IgG1, lambda)
heavy: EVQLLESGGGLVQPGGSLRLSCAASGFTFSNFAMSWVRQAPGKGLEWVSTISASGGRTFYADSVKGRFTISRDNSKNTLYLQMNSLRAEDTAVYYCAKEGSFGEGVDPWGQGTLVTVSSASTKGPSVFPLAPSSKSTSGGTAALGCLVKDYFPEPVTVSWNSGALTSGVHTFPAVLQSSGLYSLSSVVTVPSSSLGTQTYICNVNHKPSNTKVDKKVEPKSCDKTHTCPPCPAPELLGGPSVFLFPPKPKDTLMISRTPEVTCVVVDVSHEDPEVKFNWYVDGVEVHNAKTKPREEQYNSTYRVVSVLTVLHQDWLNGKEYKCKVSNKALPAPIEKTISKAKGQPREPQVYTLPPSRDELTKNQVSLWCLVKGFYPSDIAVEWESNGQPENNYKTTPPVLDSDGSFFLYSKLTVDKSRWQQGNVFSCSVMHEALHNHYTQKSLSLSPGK
light: B3 light
scFv: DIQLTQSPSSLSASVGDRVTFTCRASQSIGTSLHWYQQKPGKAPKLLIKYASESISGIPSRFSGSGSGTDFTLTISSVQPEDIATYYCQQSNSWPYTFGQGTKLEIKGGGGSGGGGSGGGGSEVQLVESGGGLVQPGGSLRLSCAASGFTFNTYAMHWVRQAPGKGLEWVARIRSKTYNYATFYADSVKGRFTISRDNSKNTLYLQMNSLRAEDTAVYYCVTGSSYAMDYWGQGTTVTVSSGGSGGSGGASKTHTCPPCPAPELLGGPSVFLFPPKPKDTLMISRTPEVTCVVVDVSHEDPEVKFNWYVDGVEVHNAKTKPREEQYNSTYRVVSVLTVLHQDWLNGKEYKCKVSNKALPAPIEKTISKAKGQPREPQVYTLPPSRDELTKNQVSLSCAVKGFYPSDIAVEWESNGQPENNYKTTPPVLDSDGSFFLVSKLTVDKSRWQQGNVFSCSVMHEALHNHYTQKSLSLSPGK
notes: Three-chain knob-into-hole bispecific: anti-CD47 Fab arm and anti-EpCAM scFv arm (Mab002-8)
EC50 (read off the curve) (recombinant human CD47 [1]): ~400 pM
EC50 (read off the curve) (recombinant human EpCAM [2]): ~100 pM
